Several values for one entry are separate records, joined by “and”; a condition that tells them apart may be missing. Identical values can stand only once.
What was measured:
[1] = target: T1, PTPN21 FERM domain (FERM^PTPN21) (Homo sapiens, UniProt Q16825); test: microscale thermophoresis (FERM-EGFP); assay type: binding
T1 construct: FERM domain, residues 21 to 319 (18 to 319 stated for the crystal); E. coli Rosetta (DE3), His-sumo tag removed; C-terminal EGFP fusion for MST; Flag-tagged for PIP-strips; monomer
T1 sequence (Q16825 21-319): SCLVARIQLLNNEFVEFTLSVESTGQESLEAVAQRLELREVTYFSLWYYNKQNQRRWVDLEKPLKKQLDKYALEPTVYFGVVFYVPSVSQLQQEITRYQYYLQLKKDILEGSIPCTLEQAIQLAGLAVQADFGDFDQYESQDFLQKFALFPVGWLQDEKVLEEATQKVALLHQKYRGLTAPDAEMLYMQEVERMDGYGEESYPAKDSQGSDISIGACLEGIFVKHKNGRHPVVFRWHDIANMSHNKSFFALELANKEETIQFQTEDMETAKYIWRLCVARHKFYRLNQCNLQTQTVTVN

mini PTPN21-EGFP = mini PTPN21-EGFP (UniProt Q16825); test: MST
[2] = substrate: Cc1cc(=O)oc2c(F)c(OP(=O)(O)O)c(F)cc12; test: fluorescent phosphatase assay, Michaelis-Menten; assay type: biochemical, Homo sapiens; settings: 50 mM Hepes pH 7.0, 150 mM NaCl, 1 mM EDTA, 2 mM DTT, RT
PTPN21 FERM-EGFP = target: T2, PTPN21 FERM-EGFP (UniProt Q16825 21-319); test: MST
T2 chain: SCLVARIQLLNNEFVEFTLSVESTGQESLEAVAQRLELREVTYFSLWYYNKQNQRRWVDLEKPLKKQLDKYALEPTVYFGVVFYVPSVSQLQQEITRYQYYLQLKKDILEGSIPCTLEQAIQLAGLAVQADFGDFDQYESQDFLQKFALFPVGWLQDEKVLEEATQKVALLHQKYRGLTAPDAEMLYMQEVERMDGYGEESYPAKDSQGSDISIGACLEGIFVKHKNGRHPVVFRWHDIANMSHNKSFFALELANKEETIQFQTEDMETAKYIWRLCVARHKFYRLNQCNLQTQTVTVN

For `O=P(O)(O)O[C@@H]1[C@H](O)[C@H](OP(=O)(O)O)[C@@H](O)[C@H](O)[C@H]1O` [ins(1,3)P2], the Kd [1] was ~6110 nM.

Molecule `O=P(O)(O)O[C@@H]1[C@@H](O)[C@H](OP(=O)(O)O)[C@H](O)[C@H](O)[C@H]1O` [ins(1,5)P2] has a Kd [1] of ~1320 nM.

With “HPV18 E7 CR3 domain (from UniProt P06788 54-105) (domain or fragment)” the Kd (mini PTPN21-EGFP) was 49 nM.

“HPV18 E7 protein, full length (from UniProt P06788 1-105) (natural protein)” gave a Kd (mini PTPN21-EGFP) of 200 nM.

B1: PTPN21 PTP domain (residues 872 to 1174) (domain or fragment)
chain: KEVATRATNDERCKILEQRLEQGMVFTEYERILKKRLVDGECSTARLPENAERNRFQDVLPYDDVRVELVPTKENNTGYINASHIKVSVSGIEWDYIATQGPLQNTCQDFWQMVWEQGIAIIAMVTAEEEGGREKSFRYWPRLGSRHNTVTYGRFKITTRFRTDSGCYATTGLKMKHLLTGQERTVWHLQYTDWPEHGCPEDLKGFLSYLEEIQSVRRHTNSTSDPQSPNPPLLVHCSAGVGRTGVVILSEIMIACLEHNEVLDIPRVLDMLRQQRMMLVQTLCQYTFVYRVLIQFLKSSRLI
B1 was tested, and the Km [2] was 28.6 µM, the kcat [2] was 1.2 s⁻¹ and the Kd (PTPN21 FERM-EGFP) was 2310 nM and 3480 nM and 1610 nM.
